Experimental data as given in the DeepSol protein solubility set.

assay: soluble on expression in E. coli; label from the status in PepcDB or PDB records

| Sequence | soluble on expression in E. coli |
| --- | --- |
| MSLNYDWIKTRATFDEPKAAVIDPFKGTEWTYQDLNIRAENLANYLQEQGVQRGDVVGIFSPNDVALLDLLFASFKLGAVYLPINWRLKTQEIESVIADSDVKLIFYSAKHLSSLEGIADELIHMDIDSKTYDDIVDPTHHRPFTTVSVEGDDLASLMYTSGTTGLPKGVMFSYDSFVNNPINTALTYKVYASYTTIISTPMFHVLGFNDLTIPLLMAGGTLVLQRYFNGESLNDLMAQYQPNFLIQIPTMYYAMLVADNFDLKNFANIEFLIQGGAAPLPTVQKKFVSLGIPIITGYGLTEAPLVSVNTAANNERKPASIGQPVMFTDTRIFDDNFEEVQVGEIGELGVRGNNVTPGYWNKPEETAKAFSGEFFLTGDLAKIDEDGDVYIVDRRKEMIITGGENVLPSEVERVLSEHPLVAQGVVVGYDSPKYGESVSAAVVLTEDDPDFEQKLDAHMREHIAGYKIPRLYLKLTHIPLNSTSKPDKLEIQKYMNDKAQKQDQSKDEGHHHHHH | not soluble |
| MAHHHHHHMPADSTATAREVPIDTVALQLDAEMAQMRLQRQRYSTLCTRKNRLQAHVDELNAQGKDLTFQRQREQTRSAQELEHGLASSSTSLPEISRTPGDQAQLPAEVLGGALQELTACITERRELLQHLRDGSHDCLKLRDARFAKCSLSTVAGLDDHVASQSGIHASDTTAVIAGRGEAPTRCAARNPVSDSAVTSAAPASGLRHVEEGLAKAHQALCRGEEKALAEREYLLLLLQQCAQPQQLQQGRGRLACRQMAD | not soluble |
| MGSDKIHHHHHHMSFTVATIAREPWPVLNRFLTWHLDQGAERIILYLDDPDDPSLPRLRGEPRIDARPCTPAFWRQIGLKQDARFTRRQRGVLSQAYHELEDGWLLVLDADEMMWMSGRTIPEALATLPDEAQSLRVRSAEQVRLSDGSEAFRTPIERAAVDRVYGDLSGLLRARFGFTYHPEGKSFHRAGQRLNMKLHWAQDANGDRTPGPVWGRAERAYLMHYAAPDYARWRAKVNWRAGASGFVLPVKEQITEIAESNDPEAGYQDLYRTLHGLTDAQALALEAEGGLLRDGPKVLDLGG | not soluble |
| SNAVRQVEEYIEANWMRPITIEKLTALTGISSRGIFKAFQRSRGYSPMAFAKRVRLQHAHNLLSDGATPTTVTAAALSCGFSNLGHFARDYRDMFGEKPSETLQRARP | soluble |
| MGSDKIHHHHHHMALSADSRLQFTSDLNICRILNGMWQVSGGHGKINAPAAIKTMFQYVDAGFTTWDLADHYGPAEDFIGEFRRQLVANRGKEALANIQAFTKWVPRPGRMTKKLVEENIDISRRRMDVESLDLMQFHWWDYQDKNYLDALKYMAELQTEGKIKHLALTNFDTEHLQIITEAGIKIVSNQVQFSLVDRRPEVNMVKFCQQHDIKLFTYGTLCGGLLSEKYIGKPEPRGFDLGTTSLRKYKNMVDAWGGWHLFQELLSTLKQIADKHGVSIANVATRYILDKPAVGGVIVGARLGISEHIADNAKVFSFTLDAEDSNVINTISSQSRDLYQLIGDCGDEYRR | not soluble |
| MENHDLVIVGGGISGLQAAISAKKSGVQDIVLIEAEDSLGGILNQCIYTGFGMEDFKEELTGTEYVQRFIDEFLELNIEYKLNTTVIKISKNKVITAVSPNEGIIEIKACSIIFAAGAVEKPQKSIRVLTKDLSGIYSALTVGRFINIHGYMPGKSIVILGANKIGNALANRIFIEGGKVKAVIDSEVGFDERNEIIEFLAEINIPFLYNYNIVKIKGSERIEGIYISDENGEKFISCDTLILALKLNPNDKILREANIKILNKERNEINTNVPGVFIVGNALYIHESNEGSPLENRKAGEMSAEYIRATLLEHHHHHH | not soluble |
| MGSDKIHHHHHHMIFVPNENNDPRVNLAIETYLLTEMPLDEPILLFYINEPSIIIGRNQNTIEEINKEYVDEHGIHVVRRLSGGGAVYHDHGNLNFSFIMPDDGNSFRDFAKVTQPIIQALHDLGVEGAELKGRNDLVINDMKFSGNAMYATNGRMFAHGTLMFDSDIDEVVNTLKVRKDKIESKGIKSVRSRVTNIKPFLSEDKQEMTTEEFRQEILLKIFGVDSIDQVKTYELTDQDWAAINKISEQYYRNWDWNYGKSPAFNLERRHRFPIGSIEMKMNVADGAIQEIKIFGDFFGLGEIKDVEDILTGVKYDKASLEEAIDQIDVKKYFGNIEKEDLLGLIY | not soluble |
| MPRGHAGDFPPPALSVRNRPGNSGLVLETCFAQLRSGRKDHGARVRNMTAPRSIVIGGGAFAGLALALALRQGLGPEVPVIVADPALALRPSRDPRATAIVAACRRLFEALGVWDEVAPTAQPIIDMVVTDSHLEDATRPVFLTFAGEVQPGEPFAHMVENRYLVEALAKRAEAEGVELRATPVTSYDARTEAIGVTLGDGSVIDASLLVAADGAKSKLRQRAGIATYGWDYDQSGIVVTVEHERDHNGCAEEHFLPAGPFAILPLTGRRSSLVWSESRRDAERIVALPEKEFQRELEKRFGLRLGDIKPLDKPKSFPLGYFVAQSFIAPRLALIGDAAHVIHPIAGQGLNMGLRDVAALAEVVVDAARLGIDPGQVDVLERYQRWRRFDTVAMGVATNGLNFLFSNNSPLLRGIRDIGLGLVDRLPPLKGAFIRQAAGLTGEIPRLLKGEALLEHHHHHH | soluble |
| MKLIIHQKWYLQQVKDTFTNLQAPRLHWALRNALNTAAKQVERFTEKQVADLSSAQIKRIRRGVYIKEKATARFLETDLIGSGTPLPLKFFKAKETKHGVTYTLFGKKQILTHGFIKGGSFPKRVDLKMGGNVFQRDDGDQFPIAKQEGPSIAKVMSKPEIASAIAQYANERLTKNIQRQLARQEYAANKKG | not soluble |
| MGSDKIHHHHHHMVGALAILMVGYSAAEAGGLRDLLEQGGLSAKVDCVAMADMLPGRLQQQEWDLVLTDDRPDLSAAQVLGLLARLGLDVPVIALVSRQDEQAAAHLIAAGVQDVLLKSDPVQLMATIRGCQRYIGHLRDLREAQLALERSEARFRAIASNLPGLVFQFVLESDGSVFFPYVSEGSRSLLGLSPDYLQKKPNSFARLIVATDVASYDQSLQDSCEHLSAWNWEGRIQAKGDMDVKWISLRATPRRTPRGAVLWDGIMLNITRNKQIELEIARSRAQLEELSAYSQKAKEQERTRIAREIHDDIGGTLTAIKCELVPCLDNSSRTPEFYRNKAEAVESLVDMVIDSTRRIALDLRPGVLDCGIVAAVQWQAREFNQRTGVSCTVACDYEDISLDGDLAVAIFRIFQEALTNIAKHANASEVRVKLAETGSQVYLEVTDNGCGITNPDMEKVNSFGIRSMRERCQQLGGQFHIQGGPLAGTEVLIRIPVNGQSTVGRESRLN | not soluble |
| MRLLVMVFTSDKKLVEEIKREVERRGFRVRDVQSPDELRRDLEKLLREHNAQFVIIVVTDKEWAKEALKKAKEEGVQIFLILWDTNEDELRKFREEVERKGVDVRTATSPDDVKDIVREFLERVGSHHHHHH | soluble |
| MRRVTTLLVMMLTVLSACQASPKASPTKPGNAMSNNHPQNPYYSRTDTTRLDLPNEVWKKVLSPELYAVARLAETERAFTGKYWNYEGLGTYYCAACGNTLFRSDAKFASTCGWPSFFETVRPGSVAYREDTSFGMVRTEVLCGRCGAHLGHVFDDGPPPTGKRFCMNSICLDFEPDQPETAKPQ | soluble |
| MDTIDLGNNESLVYGVFPNQDGTFTAMTYTKSKTFKTENGARRWLERNSGE | soluble |
| MKERILQEIKTRVNRKSWELWFSSFDVKSIEGNKVVFSVGNLFIKEWLEKKYYSVLSKAVKVVLGNDATFEITYEAFEPHSSYSEPLVKKRAVLLTPLNPDYTFENFVVGPGNSFAYHAALEVAKHPGRYNPLFIYGGVGLGKTHLLQSIGNYVVQNEPDLRVMYITSEKFLNDLVDSMKEGKLNEFREKYRKKVDILLIDDVQFLIGKTGVQTELFHTFNELHDSGKQIVICSDREPQKLSEFQDRLVSRFQMGLVAKLEPPDEETRKSIARKMLEIEHGELPEEVLNFVAENVDDNLRRLRGAIIKLLVYKETTGKEVDLKEAILLLKDFIKPNRVKAMDPIDELIEIVAKVTGVPREEILSNSRNVKALTARRIGMYVAKNYLKSSLRTIAEKFNRSHPVVVDSVKKVKDSLLKGNKQLKALIDEVIGEISRRALSGLEHHHHHH | soluble |
| GPGSMGIIKHVAVILDVSEASLEQHVLERVRQLDEDTVVRRLSEEKAGKLPDFIKLSEDIIEKNDLRKSGEGSVESIQRFVCFVTDNKTRQNGMVAYAMHCLQIPVLSLTKGQKAKGNDDAEHWVSTILYKDLDGSHTDPLAAVNEFFTFPDKVGELLAVEGRDSQLTLQYCRELRSYLQRAWSAEVKLVGPNGCDMSEEGLDGTKCGETDNVEEQVEVESGIHAPLVKELLGNSQLESTHQNDHLLHGAMYALNRHENLPIIRYRLQRGVNIILCRPMSSSLEKLFNKFSRMRGGAEDVRRSFIDAVKSLLQFEGRWLDMPRRRVVLIREGVAHSWSAWLGNEVIHPLVDWIPVDVKAGNIADHCASLEASVKKAVRRLSR | soluble |
| VGGHEKVISLGFDASKGFHTYAFDWQPGYIKWYVDGVLKHTATANIPSTPGKIMMNLWNGTGVDDWLGSYNGANPLYAEYDWVKYTSNQTGGSFFEPFNSYNSGTWEKADGYSNGGVFNCTWRANNVNFTNDGKLKLGLTSSAYNKFDCAEYRSTNIYGYGLYEVSMKPAKNTGIVSSFFTYTGPAHGTQWDEIDIEFLGKDTTKVQFNYYTNG | soluble |
| MQEQAQQFIFKVTDKAVEEIKKVAQENNIENPILRIRVVPGGCSGFQYAMGFDDTVEEGDHVFEYDGVKVVIDPFSMPYVNGAELDYVVDFMGGGFTIRNPNATGSCGCGSSFSCGLEHHHHHH | soluble |
| MKDNRYSPDWPQLALQKKQAVGWVCERCGVQCLKPGEGKGLLKEERYRLRMAVHHCDYDPSNNSPSNLMALCSPCHLHYHQRQRGNVTPGQLSLGFVYRSCLVCAQQLEHHHHHH | not soluble |
| MAHHHHHHMHRGPGKRQTAPKEAAQYQFIKKWDLQMRETWDELEPFKGLPKPKVQFGNEAAEVIWPYALLLENVIKVHPYTKSIYVYYSQRQSTPLGELAARVAKRVSQAYLIPITFHNSHVYVEAEMLLEYSETPWVVVHCLDGTHKLIPVKPQAGQTVKEGAEEVLNGIVSACNEIGSAVKNPKEVMRLLSERPLQNQYVRVNYQWYGDTPEERMSHLVKWDYEPEEVVPQLRNRTQHVLDWMNYDGNLPTHNSVRVNIHREAARMRKPNVSAGPKTFFNSSGSRANARTARFDNSRSSQS | not soluble |
| MSLGLHACIDPIAVAHNLEVLRQRLGVGVDGPRIWATVKADAYGHGLHNVLPGLRAADGIAVRHLHEAHQCRRVGWSGPIMVYAGLTHEREAALLTLQQLHLVITDMTQLEWLPGKPLYSCAPWIWLRYIGATRLGGLDASEYRRAYARCRELQQHGALRGVGHLNHYANAASVGDLEREHADFEACIRGLPGPVSTCNSAAACVLPTMAARTDWVRPGLALYGVSPIPGRAGRDLGLRPAMTLRSTLCATQNLPAGASVGYGCTFVADQPMALGLVRCGYGDGYPHNPRASFPVQVDGVLTRTVGRISMDLMAVDLRPIPAAARGAPVVLWGSPQLPVEHIAHAAGTIAAELLTGLTARVPLMRADHAALLREGHHHHHH | soluble |
| MVKSFRMKALIAGAAVAAAVSAGAVSDVPAAKVLQPTAAYAAETVFSQNNGASGFLPGRYDVQAMAPAMFNWSRESRFAGNTDGTLKWQNDIRTTPQNGAGAVIDGDGTVYLHSRDGEMKAFNPDGSVKWVTGNLGKTYTQSPVLGTNGVIYLASYDKKIYFIDKETGEILTTVPLSGGPSSETVIGSDGTLYFSTLDNYVHAIKPTSKSTWTERWKLKTNGVVSSVPVLAKNGTVYVGTYNYVFYAINSGTGQVKWSRTTSNAFKGYPVIDKDGNIYAGNQDGQLYAYTSTGSLKWTFPLNGFSSSSPAIDHNGNIYIGSGSGELFSISKNGDMNWSFYTDGPVRTAPLIDAKGTVYFGSDDMKVYAADANGNELWSYQTDSNVVSSPQLAEDGTLYIGSYTKLMAFGKLEHHHHHH | soluble |
